Assay results taken from patent US20230138315A1 (JIANGSU HENGRUI MEDICINE, published 2023).
Where a chain is given by its changes, count along the chain named. Names and notes keep the numbering of the source.

T1: human ANGPTL3(17-170)-mFc (human)
T1 construct: also called fusion protein of the extracellular region of human ANGPTL3 (17-170) and the mouse IgG2aFc fragment
T1 chain: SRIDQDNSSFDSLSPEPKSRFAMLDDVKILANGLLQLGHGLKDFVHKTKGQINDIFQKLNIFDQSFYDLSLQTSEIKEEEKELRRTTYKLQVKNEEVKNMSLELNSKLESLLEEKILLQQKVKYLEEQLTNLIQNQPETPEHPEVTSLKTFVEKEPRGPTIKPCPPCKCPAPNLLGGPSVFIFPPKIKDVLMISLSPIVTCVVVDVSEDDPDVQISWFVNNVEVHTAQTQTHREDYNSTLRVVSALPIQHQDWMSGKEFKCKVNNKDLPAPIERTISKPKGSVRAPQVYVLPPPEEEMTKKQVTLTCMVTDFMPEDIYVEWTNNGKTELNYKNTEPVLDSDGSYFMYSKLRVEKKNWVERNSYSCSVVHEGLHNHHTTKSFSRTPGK

T2: rat ANGPTL3(17-455)-His (rat, biotin-labelled in the ELISA and HTRF assays (sites not given))
T2 chain: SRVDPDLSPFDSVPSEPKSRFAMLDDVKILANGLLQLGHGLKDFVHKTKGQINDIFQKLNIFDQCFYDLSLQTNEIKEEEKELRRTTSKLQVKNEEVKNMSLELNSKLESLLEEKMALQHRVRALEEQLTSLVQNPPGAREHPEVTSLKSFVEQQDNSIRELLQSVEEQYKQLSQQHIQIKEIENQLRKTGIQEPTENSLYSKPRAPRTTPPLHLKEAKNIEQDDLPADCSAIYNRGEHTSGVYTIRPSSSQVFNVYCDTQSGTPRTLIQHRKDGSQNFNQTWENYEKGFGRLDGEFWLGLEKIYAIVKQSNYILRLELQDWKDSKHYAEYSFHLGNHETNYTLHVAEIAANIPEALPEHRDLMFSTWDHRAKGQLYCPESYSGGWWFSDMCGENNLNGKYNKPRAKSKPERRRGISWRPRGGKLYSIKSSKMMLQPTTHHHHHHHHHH

T3: mouse ANGPTL3(17-455)-His (mouse, UniProt Q9R182 17-455, biotin-labelled in the ELISA and HTRF assays (sites not given))
T3 sequence: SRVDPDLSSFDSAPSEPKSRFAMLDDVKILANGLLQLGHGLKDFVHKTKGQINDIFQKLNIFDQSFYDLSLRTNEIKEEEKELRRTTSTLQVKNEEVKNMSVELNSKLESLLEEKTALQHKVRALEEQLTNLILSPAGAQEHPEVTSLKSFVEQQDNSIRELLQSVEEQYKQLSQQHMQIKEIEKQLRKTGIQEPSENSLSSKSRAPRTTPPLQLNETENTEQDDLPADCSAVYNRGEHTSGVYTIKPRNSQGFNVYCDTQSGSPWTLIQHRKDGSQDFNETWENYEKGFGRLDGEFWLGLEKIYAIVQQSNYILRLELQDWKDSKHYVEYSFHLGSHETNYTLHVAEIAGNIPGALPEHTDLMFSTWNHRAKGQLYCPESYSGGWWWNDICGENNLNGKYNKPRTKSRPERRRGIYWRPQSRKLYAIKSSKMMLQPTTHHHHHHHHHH

T4: cynomolgus monkey ANGPTL3(17-460)-His (cynomolgus monkey, UniProt Q9Y5C1 17-460 (human entry), biotin-labelled in the ELISA and HTRF assays (sites not given))
T4 chain: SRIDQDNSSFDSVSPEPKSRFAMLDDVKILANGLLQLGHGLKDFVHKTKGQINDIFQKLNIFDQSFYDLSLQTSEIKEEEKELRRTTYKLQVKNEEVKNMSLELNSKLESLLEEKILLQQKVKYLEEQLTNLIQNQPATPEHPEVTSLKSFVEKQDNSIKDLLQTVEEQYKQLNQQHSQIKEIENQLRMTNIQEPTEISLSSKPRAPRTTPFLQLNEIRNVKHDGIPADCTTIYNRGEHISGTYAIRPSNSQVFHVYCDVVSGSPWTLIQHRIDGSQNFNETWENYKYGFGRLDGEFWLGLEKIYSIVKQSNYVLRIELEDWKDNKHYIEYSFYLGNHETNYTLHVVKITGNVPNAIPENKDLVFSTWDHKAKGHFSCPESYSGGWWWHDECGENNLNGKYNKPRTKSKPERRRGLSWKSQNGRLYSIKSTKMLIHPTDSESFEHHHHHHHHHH

B1: P3G (antibody, human IgG4 S228P, kappa, V domains shown)
VH: QVQLVQSGAEVKKPGASVKVSCKSSGYTFTDYYLHWLRQAPGQGPEWMGWISPNSGGTSYAQKFQGRVTMTRDTSISTAYMELSSLRSDDTAVYYCARDIATLGNFFTYGMDVWGQGTTVTVSS
VL: DIQLTQSPSSLSASVGDRVTITCRASQGIRNDLGWYQQKPGKAPKLLIYAASSLQSGVPSRFSGSGSGTDFTLTISSLQPEDFATYYCQQSYSSWTFGQGTKVEIKR
notes: also called anti-ANGPTL3 antibody P3G; P3 (variable regions)
B2: P8G (antibody, human IgG4 S228P, kappa, V domains shown)
VH: QVQLVQSGAEVKKPGASVKVSCKASGYTFTSYDINWVRQAPGQGLEWVGLINPRDDSTSYAQKFQGRVTMTRDTSTSTMYMELSSLRSEDTAVYFCARDLGSIREVLYYGMDVWGQGTTVTVSS
VL: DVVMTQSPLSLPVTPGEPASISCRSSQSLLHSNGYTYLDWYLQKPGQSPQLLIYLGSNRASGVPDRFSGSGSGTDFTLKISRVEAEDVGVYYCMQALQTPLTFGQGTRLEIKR
notes: also called anti-ANGPTL3 antibody P8G; P8 (variable regions)
B3: P8BG (antibody, human IgG4 S228P, kappa, V domains shown)
VH: B2 VH with D55E
VL: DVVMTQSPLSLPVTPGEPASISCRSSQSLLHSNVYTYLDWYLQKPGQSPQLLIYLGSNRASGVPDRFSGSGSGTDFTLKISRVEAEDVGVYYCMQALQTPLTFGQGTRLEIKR
notes: also called anti-ANGPTL3 antibody P8BG; P8B (variable regions)

Experiments:
[1] = molecular target: T1, human ANGPTL3(17-170)-mFc; assay: ELISA; human ANGPTL3(17-170)-mFc captured by coated goat anti-mouse IgG
Method: The binding activity of the anti-ANGPTL3 antibody to the ANGPTL3 antigen was tested by an ELISA assay. The ANGPTL3 protein (human ANGPTL3(17-170)-mFc) was immobilized on a 96-well microplate by binding to the goat anti-mouse IgG coated on the microplate, and the binding activity of the antibody to the ANGPTL3 was determined according to the intensity of the signal after the antibody was added.
Goat anti-mouse IgG (Sigma, M3534-1ML) was diluted to a concentration of 2 μg/mL with PBS buffer (Shanghai BasalMedia, B320, pH 7.4), added to a 96-well microplate (Corning, CLS3590-100EA) at 50 μL/well, and then incubated in an incubator at 37° C. for 3 h or incubated at 4° C. overnight (16-18 h). After the liquid was discarded, a PBS-diluted 5% skim milk (BD, 232100) blocking solution was added at 250 μL/well, and the mixture was incubated in an incubator at 37° C. for 3 h or incubated at 4° C. overnight (16-18 h) for blocking. After the blocking was finished, the blocking solution was discarded and the plate was washed 3 times with PBST buffer (pH 7.4 PBS containing 0.05% Tween-20), and then human ANGPTL3(17-170)-mFc (with sequence set forth in SEQ ID NO: 3) diluted to 0.5 μg/mL with a sample diluent (pH 7.4 PBS containing 1% BSA) was added at 50 μL/well. The mixture was incubated in an incubator at 37° C. for 2 h. After the incubation was finished, the reaction solution in the microplate was discarded. The plate was washed 3 times with PBST, and then a test antibody that was diluted with a sample diluent to different concentrations was added at 50 μL/well. The mixture was incubated in an incubator at 37° C. for 2 h. After the incubation was finished, the plate was washed 3 times with PBST, and a goat anti-human secondary antibody (Jackson Immuno Research, 109-035-003) that was diluted with the sample diluent was added at 50 μL/well. The mixture was incubated at 37° C. for 1 h.

rat ANGPTL3(17-455)-His = molecular target: T2, rat ANGPTL3(17-455)-His; assay: cell-based or functional assay
[2] = molecular target: T3, mouse ANGPTL3(17-455)-His; assay: cell-based or functional assay
[3] = molecular target: T4, cynomolgus monkey ANGPTL3(17-460)-His; assay: cell-based or functional assay

Binder | EC50 [1] [nM] | IC50 of blocking the inhibition of bovine LPL enzyme activity by ANGPTL3 (rat ANGPTL3(17-455)-His) [nM] | IC50 of blocking the inhibition of bovine LPL enzyme activity by ANGPTL3 [2] [nM] | IC50 of blocking the inhibition of bovine LPL enzyme activity by ANGPTL3 [3] [nM]
B1 | 2.48 | 66.5 | 168 | 42.4
B2 | 0.361 | – | – | –
B3 | 0.172 | 132 | 41.5 | 53.6
